From patent US20200223885A1

Target: IgG1 (manufactured by Sigma-Aldrich)
Experiment: SPR (Biacore T100), Fc-binding protein amine-coupled to CM5, IgG1 as analyte

Kd: 3.28 µM
koff: 0.301 s⁻¹
kon: 90200 M⁻¹ s⁻¹
B1: Fc-binding protein FcR9_F (FcR9 with Val192Phe) (receptor)
chain: KIEEAMGMRTEDLPKAEVILEPQWNRVLEKDSVTLKCRGAYSPEDNSTQWFHNESLISSQASSYLIDAATVDDSGEYRCQTSLSTLSDPVQLEVHIGWLLLQAPRWEFKEGDPIHLRCHSWKNTALHKVTYLQNGKGRKYFHHNSDFYIPKATLKDSGSYSCRGLFGSKNVSSETVNITITQGGHHHHHH
